Test results: patent US20250295734A1, “ANTICOAGULANT PROTEINS AND THEIR USE FOR TREATING DISEASES ASSOCIATED WITH THE ACTIVATION OF NEUTROPHILS” (BIOXODES, priority 2018, published 2025)

Legend:
[1] = test system: human neutrophils; experiment: Phagocytosis assay with pHrodo E. coli bioparticles; type: cell-based; settings: for neutrophil phagocytic activity: 3 donors
Method: The effect of Ir-CPI on the phagocytic activity of human neutrophils was assessed. For this purpose, freshly isolated neutrophils from 3 donors were pre-treated for 1 h with recombinant Ir-CPI at 2 different concentrations (5.0 or 15.3 μg/mL) and then incubated in the presence of pH-rodo® E. coli bioparticles (Sartorius). To evaluate the phagocytic activity, fluorescence was monitored every 15 min for up to 48 hours.
Neutrophils were directly isolated from whole blood by using the EasySep™ Direct Human Neutrophil Isolation Kit (StemCell) and according to the manufacturer's protocol. The purification is a negative selection (elimination of unwanted cell populations) to obtain intact neutrophils.
pHrodo® Green E. coli Bioparticles were resuspended at 1 mg/mL in PBS, vortexed and sonicated according to the manufacturer's protocol and then stored at 4° C. overnight. Then, 25.000 freshly isolated neutrophils, resuspended in RPMI 1640 medium containing 10% of FBS and supplements (2 mM Glutamine, 1% NEAA, 1 mM Sodium pyruvate, 50 μM B-mercaptoethanol and 50 μg/ml Gentamycin), were seeded per well in a 96 well-plate and preincubated for 1 h at 37° C., 5% CO2 with Ir-CPI at two different concentrations (2 μM and 0.65 μM). Then, pHrodo® Green E. coli Bioparticles were added at 10 μg/well and the plate was incubated in the Incucyte® Live-Cell Analysis System. Pictures were taken every 15 minutes for 48 hours. Two negative controls were performed: (1) only the neutrophils were seeded in absence of Ir-CPI and without particles, and (2) neutrophils were seeded in absence of Ir-CPI and incubated with the particles. All conditions were performed in triplicates.
To analyse neutrophil phagocytosis, the Green total area (μm2/image) was measured in each well every 15 minutes for 48 hours (2 pictures/well). Briefly, the IncuCyte® Basic Analysis software allows for the quantification of fluorescent object metrics in real-time. […]

[2] = test system: neutrophil elastase activity; experiment: Laser-induced vessel wall injury: neutrophil elastase activity; type: in vivo, mice (C57BL/6JRj); settings: iv bolus 20.5 mg/kg + infusion 3.7 mg/kg/h
Method: Ir-CPI was administered intravenously as a bolus (20.5 mg/kg) immediately followed by a continuous infusion at a rate of 3.7 mg/kg/h (see Table 1 below). Due to fast distribution and elimination of Ir-CPI in the mice (t1/2α=14 min and t1/2β=236 min), the combination of the bolus and the infusion was chosen in order to maintain a constant Ir-CPI concentration into the blood.
Vessel wall injury was induced with a Micropoint Laser System (Photonics Instruments) focused through the microscope objective, parfocal with the focal plane and aimed at the vessel wall, as previously described (Dubois et al., 2006). Typically, 1 or 2 pulses were required to induce vessel wall injury.
Multiple thrombi were studied in a single mouse, with new thrombi formed upstream of earlier thrombi to avoid any contribution from thrombi generated earlier in the animal under study. Laser-beam injuries were done at various time after the start of test-item administration (+5 min up to about 150 min after bolus administration of Ir-CPI or NaCl (control)).
Image analysis was performed using Slidebook 4.1 (Intelligent Imaging Innovations). Fluorescence data were captured digitally at up to 50 frames per second and analyzed as previously described (Falati et al., 2002). The kinetics of thrombus formation were analyzed by determining median fluorescence values over time in a minimum number of 20 thrombi. […]

[3] = Quantification of Ir-CPI in plasma samples by ELISA; type: in vivo, mice (C57BL/6JRj); settings: iv bolus 20.5 mg/kg + infusion 3.7 mg/kg/h; after about 150 min of procedure; Mean±SEM, n=5
Method: Plasma (around 250 μL) was centrifuged at 18-22° C./at 2500 g during 15 min. Plasma was centrifuged again (18-22° C. at 2500 g during 15 min) and was stored into a polypropylene tube at −80° C. Plasma samples were later sent frozen on dry ice for dosage of the circulating concentration of Ir-CPI by ELISA.
The quantification of circulating Ir-CPI in the plasma samples was assessed by ELISA at Eurofins, ADME Bioanalyses (Vergèze, France). A sandwich immuno-assay was carried out using two anti-Ir-CPI antibodies. The capture monoclonal antibody (Ir-CPI3) was coated to microtitration plates (Nunc, ThermoFischer Scientific, USA) at 1 μg/mL overnight at 4° C. in PBS (Hyclone, USA). Wells were blocked with PBS BSA 2% (Sigma-Aldrich, USA) at room temperature (RT) for 1 h and were then washed. Samples were added into the wells and incubated for 2 h at RT. The biotinylated detection antibody (L39-biotin), previously diluted in PBS BSA 1% (Sigma-Aldrich, USA), was added to the wells and complemented with streptavidin-HRP (REF) diluted in PBS BSA 1%. TMB SureBlue (KPL, REF) and H2SO4 IN (VWR, USA) were used for spectrophotometric detection (450 nm).

[4] = target: plasmin (Homo sapiens, UniProt P00747); settings: cited from earlier work
plasmin, sequence (P00747 97-580 limits assumed, species assumed): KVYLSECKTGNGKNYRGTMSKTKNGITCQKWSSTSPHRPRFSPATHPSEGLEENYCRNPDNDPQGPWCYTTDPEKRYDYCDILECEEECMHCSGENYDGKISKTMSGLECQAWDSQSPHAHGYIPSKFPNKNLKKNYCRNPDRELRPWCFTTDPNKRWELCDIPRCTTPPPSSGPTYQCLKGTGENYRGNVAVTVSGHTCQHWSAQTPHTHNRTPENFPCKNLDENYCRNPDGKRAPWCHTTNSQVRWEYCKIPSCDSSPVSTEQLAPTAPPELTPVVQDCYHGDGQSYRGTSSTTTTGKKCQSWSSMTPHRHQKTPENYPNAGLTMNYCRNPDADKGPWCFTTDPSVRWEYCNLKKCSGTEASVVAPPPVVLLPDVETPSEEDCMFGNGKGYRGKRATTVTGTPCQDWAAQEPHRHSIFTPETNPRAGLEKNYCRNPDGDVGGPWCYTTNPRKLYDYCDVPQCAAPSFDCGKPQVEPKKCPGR
plasmin, sequence (P00747 581-810 limits assumed, species assumed): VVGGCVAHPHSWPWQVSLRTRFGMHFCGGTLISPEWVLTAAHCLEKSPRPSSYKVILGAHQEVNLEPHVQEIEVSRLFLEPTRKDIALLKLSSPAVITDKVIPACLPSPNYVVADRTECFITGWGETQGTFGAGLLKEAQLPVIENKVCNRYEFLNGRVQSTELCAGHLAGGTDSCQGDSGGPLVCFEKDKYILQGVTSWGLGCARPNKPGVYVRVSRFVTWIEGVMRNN

[5] = test system: thrombin generation induced by TF (extrinsic pathway activator); settings: induced by low concentration of TF (5 pM); cited from earlier work

B1: Ir-CPI: Ixodes ricinus salivary gland polypeptide, contact phase inhibitor, MW=7660 Da; sequence SEQ ID NO: 1 or SEQ ID NO: 2 (protein)
chain: ANHKGRGRPAKCKLPPDDGPCRARIPSYYFDRKTKTCKEFMYGGCEGNENNFENITTCQEECRAKKV
For B1, the neutrophil phagocytic activity ([1]; recombinant Ir-CPI 5.0 μg/mL (0.65 μM)) was “no evidence for an effect”, the neutrophil phagocytic activity ([1]; recombinant Ir-CPI 15.3 μg/mL (2 μM)) was “marginal (p-value just below threshold for significance) evidence for an increase” and the “decrease of the phagocytic activity of human neutrophils” value ([1]; whatever the concentration) was “did not induce a decrease”. For the same molecule, the “signal corresponding to neutrophil elastase activity compared to control mice” value [2] was “drastically reduced”, the Mean plasma concentration [3] was 6480 ± 1020 ng/mL and the binding to plasmin [4] was “binds”. The thrombin generation [5] was “quite inactive”.
